This is an account of results in PMC4773404, “Activation of a synapse weakening pathway by human Val66 but not Met66 pro-brain-derived neurotrophic factor (proBDNF)” (Pharmacological Research, 2016).

In general, Kd refers to the free concentration of one partner at which half of the binding sites on the other are occupied at equilibrium, for simple one-to-one binding. As usually defined, the koff is the rate constant with which the complex falls apart. What is called kon is the rate constant with which the complex forms. Low values mean slower complex formation, high ones faster complex formation.

What all share (assay): SPR; Biacore T200; receptor domains amine-coupled to CM5-S Series chips; analytes 0-20 nM flowed over; 10 mM HEPES, 150 mM NaCl, 3 mM EDTA, 0.05% surfactant P20, pH 7.4; double-referenced; 1:1 Langmuir fit
Holding throughout (settings): both partners purified

For assay [1], the target named is T1, human proBDNF Met66, furin cleavage-resistant (FCR) (human).
T1 construct: furin site 127RR128 changed to AA; non-glycosylated; Cloned in pET 24a(+); also called proBDNF FCR Met66
T1 sequence (P23560 whole entry, looked up): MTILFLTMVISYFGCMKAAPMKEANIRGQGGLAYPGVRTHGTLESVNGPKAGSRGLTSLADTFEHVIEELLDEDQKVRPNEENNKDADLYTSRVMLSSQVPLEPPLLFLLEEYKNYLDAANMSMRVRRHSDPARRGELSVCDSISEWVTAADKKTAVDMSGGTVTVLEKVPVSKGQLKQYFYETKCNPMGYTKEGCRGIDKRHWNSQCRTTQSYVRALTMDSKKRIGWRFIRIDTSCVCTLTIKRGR

Assay [2] addresses T2, human proBDNF Val66, furin cleavage-resistant (FCR) (human).
T2 construct: furin site 127RR128 changed to AA; non-glycosylated; Cloned in pET 24a(+); also called proBDNF FCR Val66
T2 sequence (P23560 whole entry, looked up): T1 sequence (P23560 whole entry, looked up)

Assay [3] deals with T3, brain-derived neurotrophic factor (BDNF).
T3 construct: mature BDNF (~14 kDa), the cut product of proBDNF; used as control analyte in SPR; also called mature BDNF
T3 sequence (P23560 19-247, species assumed, looked up): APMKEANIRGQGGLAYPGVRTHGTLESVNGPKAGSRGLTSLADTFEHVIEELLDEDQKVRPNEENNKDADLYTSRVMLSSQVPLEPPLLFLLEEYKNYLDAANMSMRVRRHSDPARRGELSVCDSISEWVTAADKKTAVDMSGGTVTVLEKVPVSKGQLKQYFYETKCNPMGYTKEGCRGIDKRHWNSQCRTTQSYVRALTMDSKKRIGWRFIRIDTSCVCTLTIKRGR

B1: TrkB immunoglobulin-like domain 2 (TrkBIg2) (domain or fragment)
chain: APTITFLESPTSDHHWCIPFTVKGNPKPALQWFYNGAILNESKYICTKIHVTNHTEYHGCLQLDNPTHMNNGDYTLIAKNEYGKDEKQISAHFMGWPG
In assay [1], B1 registered a Kd of 2.03 nM, an off-rate constant (koff) of 0.00392 s⁻¹ and an on-rate (kon) of 1.99e+06 M⁻¹ s⁻¹. In assay [2], this molecule registered an equilibrium dissociation constant (Kd) of 2.32 nM, a koff of 0.00367 s⁻¹ and a kon of 1.61e+06 M⁻¹ s⁻¹. In assay [3], this molecule registered a dissociation constant (Kd) of 0.58 nM, a koff of 0.00232 s⁻¹ and a kon of 4.57e+06 M⁻¹ s⁻¹.
